What was measured:
[1] = biological target: T1, HLA-A*02:01/MAGE-A4^230-239 displayed on cells (MAGE-A4^230-239 pulsed T2 cells; NCI-H1703, A375, THP1, … (human, UniProt P04439 25-365 at identity 0.94); P61769 21-119); assay: cell-based or functional assay
[2] = biological target: T1, HLA-A*02:01/MAGE-A4^230-239 displayed …; assay: cell-based or functional assay; remark: listed apart in the source
[3] = biological target: T2, HLA-A*02:01/MAGE-A4^230-239, soluble recombinant biotinylated pHLA (human, UniProt P04439 25-299 at identity 0.94); P61769 21-119, biotinylated); assay: ELISA, soluble biotinylated pHLA on neutravidin, scDb, protL-HRP
T2 construct: Empty biotinylated HLA-A2 monomers (Tetramer Shop) loaded with synthetic peptide; also called MAGE-A4 pMHC; MAGE-A4-pHLA

[4] = biological target: T2, HLA-A*02:01/MAGE-A4^230-239, soluble …; assay: SPR, biotinylated pHLA on neutravidin chip, scDb without His-tag injected (Assay 6-2)
[5] = biological target: T3, HLA-A*02:01 loaded with MAGE-A8 homologue peptide, soluble biotinylated (human, UniProt P04439 25-299 at identity 0.94); P61769 21-119, biotinylated); assay: pHLA phage capture ELISA
T3 construct: HLA monomer as for m1

[6] = biological target: T4, HLA-A*02:01 loaded with MAGE-A3 homologue peptide, soluble biotinylated (human, UniProt P04439 25-299 at identity 0.94); P61769 21-119, biotinylated); assay: pHLA capture ELISA: biotinylated pHLA on neutravidin, scFv-phage, anti-M13 antibody detection [cont.) C]
T4 construct: HLA monomer as for m1

[7] = biological target: T5, HLA-A*02:01 loaded with MAGE-A9 homologue peptide, soluble biotinylated (human, UniProt P04439 25-299 at identity 0.94); P61769 21-119, biotinylated); assay: as above
T5 construct: HLA monomer as for m1

[8] = biological target: T6, HLA-A*02:01 loaded with MAGE-A10 homologue peptide, soluble biotinylated (human, UniProt P04439 25-299 at identity 0.94); P61769 21-119, biotinylated); assay: as above
T6 construct: HLA monomer as for m1

[9] = biological target: T7, HLA-A*02:01 loaded with MAGE-A11 homologue peptide, soluble biotinylated (human, UniProt P04439 25-299 at identity 0.94); P61769 21-119, biotinylated); assay: as above
T7 construct: HLA monomer as for m1

[10] = biological target: T8, HLA-A*02:01 loaded with MAGE-A12 homologue peptide, soluble biotinylated (human, UniProt P04439 25-299 at identity 0.94); P61769 21-119, biotinylated); assay: as above
T8 construct: HLA monomer as for m1

[11] = biological target: T9, HLA-A*02:01 loaded with MAGE-B2 homologue peptide, soluble biotinylated (human, UniProt P04439 25-299 at identity 0.94); P61769 21-119, biotinylated); assay: as above
T9 construct: HLA monomer as for m1

[12] = biological target: T10, HLA-A*02:01 loaded with MAGE-B4 homologue peptide, soluble biotinylated (human, UniProt P04439 25-299 at identity 0.94); P61769 21-119, biotinylated); assay: as above
T10 construct: HLA monomer as for m1

[13] = biological target: T11, HLA-A*02:01 loaded with MAGE-B6 homologue peptide, soluble biotinylated (human, UniProt P04439 25-299 at identity 0.94); P61769 21-119, biotinylated); assay: as above
T11 construct: HLA monomer as for m1

[14] = biological target: T12, HLA-A*02:01 loaded with MAGE-B10 homologue peptide, soluble biotinylated (human, UniProt P04439 25-299 at identity 0.94); P61769 21-119, biotinylated); assay: as above
T12 construct: HLA monomer as for m1

[15] = biological target: T13, HLA-A*02:01 loaded with MAGE-C2 homologue peptide, soluble biotinylated (human, UniProt P04439 25-299 at identity 0.94); P61769 21-119, biotinylated); assay: as above
T13 construct: HLA monomer as for m1

[16] = biological target: T14, HLA-A*02:01 loaded with MAGE-A1 homologue peptide, soluble biotinylated (human, UniProt P04439 25-299 at identity 0.94); P61769 21-119, biotinylated); assay: as above
T14 construct: HLA monomer as for m1

[17] = biological target: T15, HLA-A*02:01 loaded with MAGE-A2 homologue peptide, soluble biotinylated (human, UniProt P04439 25-299 at identity 0.94); P61769 21-119, biotinylated); assay: as above
T15 construct: HLA monomer as for m1

[18] = biological target: T2, HLA-A*02:01/MAGE-A4^230-239, soluble …; assay: ELISA, biotinylated pHLA on neutravidin, protL-HRP
[19] = biological target: T2, HLA-A*02:01/MAGE-A4^230-239, soluble …; assay: SPR, biotinylated pHLA on neutravidin chip, Fab injected (Assay 6-1); Fab, not scDb

B1: AM14 scDb (bispecific antibody)
chain: DIQLTQSPSSLSASVGDRVTITCRADIDIRWYLNWYQQKPGKAPKLLIYAASGLQSGVPSRFSGSGSGTDFTLTISSLQPEDFATYYCQQSYSTPFTFGPGTKVDIKGGGGSEVQLQQSGPELVKPGASMKISCKASGYSFTGYTMNWVKQSHGKNLEWMGLINPYKGVSTYNQKFKDKATLTVDKSSSTAYMELLSLTSEDSAVYYCARSGYYGDSDWYFDVWGAGTTVTVSSGGGGSGGGGSGGGGSDIQMTQTTSSLSASLGDRVTISCRASQDIRNYLNWYQQKPDGTVKLLIYYTSRLHSGVPSKFSGSGSGTDYSLTISNLEQEDIATYFCQQGNTLPWTFAGGTKLEIKGGGGSQVQLVQSGAEVKKPGASVKVSCKVSGYTLTELSMHWVRQAPGKGLEWMGGFDPEDGETIYAQKFQGRVTMTEDTSTDTAYMELSSLRSEDTAVYYCATDQGSSWGFYWGQGTLVTVSS
notes: as m68; without a His-tag in the SPR assay
In the case of B1, the “EC50 vs. NCI-H1703 (pM), T-cell specific killing” value [1] is reported as 5.1 pM, the “IFNγ EC50 vs. target positive cells (pM)” value [2] is reported as 4.1 pM and the EC50 [3] is reported as 0.1 nM. The Kd [4] was 0.44 nM.

B2: AM17 scDb (bispecific antibody)
chain: DIRLTQSPSSLSASVGDRVTMTCRASQTVATYVNWYQQKPGRAPKLLMYVTSIRQSEVPSRFSGDGFGTDFTLTINPLQPDDFATYYCQQAYSTPVTFGQGTKLEIKGGGGSEVQLQQSGPELVKPGASMKISCKASGYSFTGYTMNWVKQSHGKNLEWMGLINPYKGVSTYNQKFKDKATLTVDKSSSTAYMELLSLTSEDSAVYYCARSGYYGDSDWYFDVWGAGTTVTVSSGGGGSGGGGSGGGGSDIQMTQTTSSLSASLGDRVTISCRASQDIRNYLNWYQQKPDGTVKLLIYYTSRLHSGVPSKFSGSGSGTDYSLTISNLEQEDIATYFCQQGNTLPWTFAGGTKLEIKGGGGSQVQLVQSGAEVKKPGASVKVSCKVSGYTLTELSMHWVRQAPGKGLEWMGGFDPEDGETIYAQKFQGRVTMTEDTSTDTAYMELSSLRSEDTAVYYCATDQGSSWGFYWGQGTLVTVSS
notes: as for B1
With B2 the “EC50 vs. NCI-H1703 (pM), T-cell specific killing” value [1] was 2.9 pM, the “IFNγ EC50 vs. target positive cells (pM)” value [2] was 10.9 pM and the EC50 [3] was 0.3 nM. For the same binder, the Kd [4] was 10.8 nM.

B3: AM2 scFv displayed on phage (scFv)
scFv: QVQLVQSGAEVKKPGASVKVSCKVSGYTLTELSMHWVRQAPGKGLEWMGGFDPEDGETIYAQKFQGRVTMTEDTSTDTAYMELSSLRSEDTAVYYCATDQGSSWGFYWGQGTLVTVSSKLSGSASAPKLEEGEFSEARVDIRVTQSPSSLSASVGDRVTITCRASQNIMWYLNWYQQKPGKAPKLLIYAASSLQSGVPSRFSGSGSGTDFTLTISSLQPEDFATYYCQQSYSTPYTFGQGTKLEIK
notes: scFv on the surface of phage particles; also called AM2 phages
With B3 the “fold reduction of binding as compared to binding to HLA-A*02:01/MAGE-A4^230-239” value [5] was no less than 2 fold, the binding result [6] was “no binding (tested: 10^9 phages/well)” and the binding result [7] was “no binding (tested: 10^9 phages/well)”. B3: no binding (tested: 10^9 phages/well) [8]; no binding (tested: 10^9 phages/well) [9]; no binding (tested: 10^9 phages/well) [10]. B3: no binding (tested: 10^9 phages/well) [11]; no binding (tested: 10^9 phages/well) [12]; no binding (tested: 10^9 phages/well) [13]. B3: no binding (tested: 10^9 phages/well) [14]; no binding (tested: 10^9 phages/well) [15]; no binding (tested: 10^9 phages/well) [16]. B3: no binding (tested: 10^9 phages/well) [17].

B4: 1-H02 full length human IgG1 (antibody, V domains shown)
VH: QVQLVQSGAEVKKPGASVKVSCKVSGYTLTELSMHWVRQAPGKGLEWMGGFDPEDGETIYAQKFQGRVTMTEDTSTDTAYMELSSLRSEDTAVYYCATDQGSSWGFYWGQGTLVTVSS
VL: not shown
notes: also called 1-H02 hIgG1; 1-H02 IgG
For B4, the EC50 [18] was 1.1 nM.

B5: 1-H02 Fab (Fab, V domains shown)
VH: B4 VH
VL: not shown
notes: Fab format
Binder B5 has a Kd [19] of 1410 nM.

Source: patent US20260209359A1 (NEXTERA, published 2026)
